Read-outs that look alike come from different tables or passages of the source.
T1: ACVR2B-Fc fusion protein (human, UniProt Q13705 19-137)
T1 construct: also called water-soluble ACVR2B
T1 sequence: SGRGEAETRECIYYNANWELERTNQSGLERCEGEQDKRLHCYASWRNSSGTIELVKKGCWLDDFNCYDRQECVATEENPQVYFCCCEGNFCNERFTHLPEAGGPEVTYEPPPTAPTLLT


Key:
Fc [1] = molecular target: T2, Fc; assay: phage ELISA, Fc coated
T2 construct: domain: Fc
Method: (§1) Colonies obtained from a group of the polyclonal phage antibodies having high binding capacity were cultured at a temperature of 37° C. for 16 hours in a 96-deep well plate (Bioneer 90030) containing 1 ml of a medium supplemented with 2×YTCM, 2% glucose, and 5 mM MgCl₂. 100 to 200 μl of the cultured cells were taken, and diluted with 1 ml of a medium supplemented with 2×YTCM, 2% glucose, and 5 mM MgCl₂ so that the OD₆₀₀ value of the cultured cells reached 1. Thereafter, the cells were cultured at a temperature of 37° C. for 2 to 3 hours in a 96-deep well plate so that the OD₆₀₀ value reached 0.5 to 0.7. Then, the cells were infected with an […] so that an MOI value became 1:20, and then cultured at a temperature of 30° C. for 16 hours in a medium supplemented with 2×YTCMK, 5 mM MgCl₂, and 1 mM IPTG. The cultured cells were centrifuged (at 4,500 rpm and 4° C. for 15 minutes) to collect a supernatant. Then, the supernatant was thoroughly dissolved in 4% PEG 6000 and 3% NaCl, and reacted on ice for an hour. The resulting reaction mixture was centrifuged again (at 8,000 rpm and 4° C. for 20 minutes), and the pellet was dissolved in PBS, and then centrifuged (at 12,000 rpm and 4° C. for 10 minutes) to obtain a supernatant, which was transferred to a new tube and stored at 4° C. Subsequently, a 96-well immunoplate was coated with antigens at a concentration of 100 ng per well by treating the immunoplate with the antigens at 4° C. for 16 hours, and each well was then blocked with skim milk (4%) dissolved in PBS. Each well was washed with 0.2 ml of PBS-Tween 20 (0.05%), and 100 μl of the monoclonal scFv-phages obtained by the above-described method were added to each well, and then reacted at room temperature for 2 hours. Each well was again washed four times with […] of PBS-Tween 20 (0.05%), and a secondary antibody, anti-M13-HRP, was diluted at 1:2000, added to each well, and then reacted at room temperature for an hour. Each well was washed with […] of PBS-Tween 20, colorimetrically developed, and then measured for optical density at 490 nm.

Fc [2] = molecular target: T2, Fc; assay: phage ELISA, Fc coated; remark: listed apart in the source
ACVR2B-Fc fusion protein [3] = molecular target: T1, ACVR2B-Fc fusion protein; assay: phage ELISA, ACVR2B coated
[4] = molecular target: T3, anti-myc antibody coated on the ELISA plate; assay: phage ELISA, anti-myc coated
T3 construct: also called a-MYC; a-myc
Method: as §1

[5] = molecular target: T3, anti-myc antibody coated on the ELISA …; assay: phage ELISA, anti-myc coated; remark: listed apart in the source
ACVR2B-Fc fusion protein [6] = molecular target: T1, ACVR2B-Fc fusion protein; assay: phage ELISA, ACVR2B coated; remark: listed apart in the source
Method: as §1

ACVR2B-Fc fusion protein [7] = molecular target: T1, ACVR2B-Fc fusion protein; assay: phage ELISA; OD on ACVR2B divided by OD on a-myc

| Binder | OD490 (Fc [1]) [OD] | OD490 (Fc [2]) [OD] | OD490 (ACVR2B-Fc fusion protein [3]) [OD] | OD490 [4] [OD] | OD490 [5] [OD] | OD490 (ACVR2B-Fc fusion protein [6]) [OD] | Ratio (ACVR2B-Fc fusion protein [7]) |
| --- | --- | --- | --- | --- | --- | --- | --- |
| ACVR2B D07 (monoclonal scFv-phage) (scFv, V domains shown, also called D7) VH: QVQLVQSGAEVKKPGASVKVSCKASGYTFTSYYMHWVRQAPGQGLEWMGIINPSGGSTSYAQKFQGRVTMTRDTSTSTVYMELSSLRSEDTAVYYCAKDQSRGWYSNFDSWGQGTLVTVSS VL: DIQMTQSPSTLSASVGDRVTITCRASQTVSNWLAWYQLKPGKAPKLLIYKASSLESGVPSRFSGTGSETEFTLTISSLQPDDFATYYCQQYHSYPITFGQGTRLEIK | 0.0428 | 0.042 | 2.66 | 0.241 | 0.24 | 2.66 | 11 |
| ACVR2B B08 (monoclonal scFv-phage) (scFv, V domains shown, also called B8) VH: VQLVQSGGGLVHPGQSLRLSCTGSGFPFGDYSMTWVRQAPGKGLEWVGLVRSKAYGGTTEYAASVKGRFIMSRDDSRSIAYLQMNSLRAEDTAVYYCARGHYGMDVWGQGTTVTVSS VL: DIQMTQSPSSVSASVGDRVTITCRASQGISNWLAWYQQKPGKAPKLLIYAASSLQSGVPSRFSGSGSGTDFTLTISSLQPEDFATYYCQQAKSYPYTFGQGTKVEIK | 0.0455 | 0.045 | 2.64 | 1.16 | 1.16 | 2.64 | 2.28 |
| ACVR2B C07 (monoclonal scFv-phage) (scFv, V domains shown, also called C7) VH: QMQLVQSGGGLVKPGGSLRLSCAPSGFTFRDYHMSWIRQAPGKGLEWISNISNSGTNIYYADSVKGRFTISRDNAKNSLYLQMNSLRAEDTAVYYCARGHYGMDIWGQGTTITVSS VL: DIQMTQSPSSLSASVGDRVTITCRASQGIANYLAWYQQKPGKAPKLLIYAASTLQSGVPSRFSGSGSGTDFTLTISSLQPEDFATYYCQQVKSYPLSFGGGTKVEIK | 0.0435 | 0.043 | 2.98 | 0.441 | 0.44 | 2.98 | 6.75 |
| ACVR2B C08 (monoclonal scFv-phage) (scFv, V domains shown, also called C8) VH: VQLVESGGGLVQPGGSLRLSCSASGFTFSSYAMHWVRQAPGKGLEYVSAISSNGGSTYYADSVKGRFTISRDNSKNTLYLQMNSLRAEDTAVYYCAKTYGGYGNAFDIWGQGTMITVSS VL: DIQMTQSPSSVSASVGDRVTITCRASQGISRWLAWYQQKPGKAPKLLIYAASNLQSGVPSRFSGSGSGTDFTLTINSLQPEDFATYFCQQGKSFPYTFGPGTKVEIK | 0.0721 | 0.072 | 2.87 | 1.17 | 1.17 | 2.86 | 2.45 |
| ACVR2B A06 (monoclonal scFv-phage) (scFv, V domains shown, also called A6) VH: VQLVQSGGGLVQPGRSLRLSCTASGFTFGDYAMSWVRQAPGKGLEWVGFIRSKRYDGTAEYAASVKGRFTISRDDSKNSLYLQMNSLRAEDTAVYYCARGHYAMDVWGQGTTVTVSS VL: DIQMTQSPSSLSASVGDRVTITCRASRSISNYLNWYQQKPGKAPKLLIYAASSLQSGVPSRFSGSGSGTDFTLTISSLQPEDFATYYCQQSYDTPFTFGLGNQLEIK | 0.046 | 0.046 | 2.96 | 0.704 | 0.703 | 2.96 | 4.21 |
| ACVR2B D11 (monoclonal scFv-phage) (scFv, V domains shown) VH: MQLVQSGGGLVQPGRSLGLSCTASGFTFGDYAMSWVRQAPGKGLEWVGFIRSKAYGGTTEYAASVKGRLTISRDDSKSIAYLQMNSLRAEDTAVYYCARGHYGMDVWGQGTTVTVSS VL: DIQMTQSPSSLSASVGDRVTITCRASQNISNFLNWYQQKPGKAPKLLIYSASRLQRGVPSRFSGSGSGTDFTLTISSLQPEDFATYYCQQSYSTPYTFGQGTKLEIK | 0.0429 | 0.042 | 3.05 | 0.834 | 0.833 | 3.05 | 3.66 |

— patent publication US20150030595A1 (ANTIBODY AND RECEPTOR THERAPEUTICS, published 2015)
